Publication doi:10.1101/2024.10.17.618658

Experiments:
[1] = biological target: human Juno glycosylated ectodomain (ECD), wild type, with C-terminal SpyTag (human) (UniProt A6ND01); test: flow cytometry-based bead-binding assay
[2] = biological target: human Juno ectodomain, infertility-associated variant H177Q, with C-terminal SpyTag (human) (UniProt A6ND01); test: flow cytometry-based bead-binding assay
[3] = biological target: human Juno ectodomain, infertility-associated variant H177Q, with C-terminal SpyTag (human) (UniProt A6ND01); test: AFM-based single-molecule force spectroscopy
[4] = biological target: human Juno glycosylated ectodomain (ECD), wild type, with C-terminal SpyTag (human) (UniProt A6ND01); test: AFM-based single-molecule force spectroscopy

Row | Substance | Kd [1] [nM] | Kd [2] [nM] | average median peak bond lifetime under clamped force (40-50 pN) [3] [s] | median bond lifetime under clamped force (before the slip-to-catch transition) [4] [s] | median bond lifetime under clamped force (peak of the catch bond, 40-50 pN) [4] [s]
1 | human Izumo1 ectodomain K150A with C-terminal SpyTag (from UniProt Q8IYV9 22-292) (domain or fragment) | 110 |  |  |  | 
2 | human Izumo1 glycosylated ectodomain (ECD), wild type, with C-terminal SpyTag (from UniProt Q8IYV9 22-292) (domain or fragment) | 45 | 64 | 0.17 | 0.02 | 0.15
